Consider two molecules from patent publication US20250215098A1 (QYUNS THERAPEUTICS, published 2025).

For this assay, the target named is T1, human IL-36R on HT29 cells, HT29 reporter gene cells, A431 cells and human PBMC (human, UniProt Q9HB29 20-575).
T1 sequence (looked up): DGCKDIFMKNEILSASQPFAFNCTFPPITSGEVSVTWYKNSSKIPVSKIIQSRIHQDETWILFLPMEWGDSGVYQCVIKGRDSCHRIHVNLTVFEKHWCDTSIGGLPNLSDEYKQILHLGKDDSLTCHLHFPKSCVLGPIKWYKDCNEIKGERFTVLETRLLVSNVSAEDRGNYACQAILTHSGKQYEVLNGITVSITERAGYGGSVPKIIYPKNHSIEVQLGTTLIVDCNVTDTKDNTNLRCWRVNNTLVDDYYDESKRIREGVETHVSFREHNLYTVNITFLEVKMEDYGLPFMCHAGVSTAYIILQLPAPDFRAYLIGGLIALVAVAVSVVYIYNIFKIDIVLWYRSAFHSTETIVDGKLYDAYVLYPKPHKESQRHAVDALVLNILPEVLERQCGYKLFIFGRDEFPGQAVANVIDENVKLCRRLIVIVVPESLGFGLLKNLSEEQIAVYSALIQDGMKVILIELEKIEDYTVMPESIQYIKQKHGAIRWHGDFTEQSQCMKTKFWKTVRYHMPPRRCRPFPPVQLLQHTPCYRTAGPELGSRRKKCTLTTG
In words: cell-based or functional assay.

B1: Spesolimab (expressed from the B6 sequence of patent US9023995B2) (antibody, V domains shown)
VH: QVQLVQSGAEVKKPGASVKVSCKASGYSFTSSWIHWVKQAPGQGLEWMGEINPGNVRTNYNENFRNKVTMTVDTSISTAYMELSRLRSDDTAVYYCTVVFYGEPYFPYWGQGTLVTVSS
VL: QIVLTQSPGTLSLSPGERATMTCTASSSVSSSYFHWYQQKPGQAPRLWIYRTSRLASGVPDRFSGSGSGTDFTLTISRLEPEDAATYYCHQFHRSPLTFGAGTKLEIK
With B1, the “IC50 in inhibiting CXCL-1 release from A431 cells induced by the human IL-36 (α, β, γ)” value was 12.3 ng/mL; the “IC50 in inhibiting CXCL-1 release from HT29 cells induced by the human IL-36 (α, β, γ)” value amounted to 12.3 ng/mL; the “IC50 in inhibiting IL-8 release from A431 cells induced by the human IL-36 (α, β, γ)” value was 11.5 ng/mL; the “IC50 in inhibiting IL-8 release from HT29 cells induced by the human IL-36 (α, β, γ)” value was found to be 11.5 ng/mL. Further, the “IC50 in inhibiting IL-8 release from human PBMC cells induced by the human IL-36β” value stood at 26.6 ng/mL and the “IC50 in inhibiting STAT3 phosphorylation in HT29 reporter cells induced by human IL-36 (α, β, γ)” value was 15.7 ng/mL.

B2: QX009N (HZD25-54) (antibody, human IgG1, kappa, L234A L235A, V domains shown)
VH: EVQLVESGGGLVQPGGSLRLSCAASGIDLSNYAMGWVRQAPGKGLEWVGYISGGGSAYYASWAKGRFTISRDNSKNTLYLQMNSLRAEDTAVYYCARWAIKSYFFGMDLWGQGTLVTVSS
VL: DIQMTQSPSSVSASVGDRVTITCQASEYISSYLAWYQQKPGKAPKLLIYQASTLASGVPSRFSGSGSGTDFTLTISSLQPEDFATYYCQTNNAIHTYGGAFGGGTKVEIKR
As for B2, the “IC50 in inhibiting CXCL-1 release from A431 cells induced by the human IL-36 (α, β, γ)” value was 4.12 ng/mL; the “IC50 in inhibiting CXCL-1 release from HT29 cells induced by the human IL-36 (α, β, γ)” value was 2.21 ng/mL; the “IC50 in inhibiting IL-8 release from A431 cells induced by the human IL-36 (α, β, γ)” value turned out to be 2.89 ng/mL; the “IC50 in inhibiting IL-8 release from HT29 cells induced by the human IL-36 (α, β, γ)” value was determined as 1.53 ng/mL. The “IC50 in inhibiting IL-8 release from human PBMC cells induced by the human IL-36β” value worked out at 4.69 ng/mL and the “IC50 in inhibiting STAT3 phosphorylation in HT29 reporter cells induced by human IL-36 (α, β, γ)” value came to 2.16 ng/mL.
